Test results: the supplement of paper PMC7877785
± gives the uncertainty stated by the source.

Assay: self-splicing fitness, log relative to wild type (ln ratio); higher = more splicing; Tetrahymena group I intron in knt gene, E. coli kanamycin selection, DiMSum; sequences stand for … in CUCUCU…GGAGGGAAAAGUUAUCAGGCAUGCACCUGGUAGCUAGUCUUUAAACCAAUAGAUUGCAUCGGUUUAAAAGGCAAGACCGUCAAAUUGCGGGAAAGGGGUCAACAGCCGUUCAGUACCAAGUCUCAGGGGAAACUUUGAGAUGGCCUUGCAAAGGGUAUGGUAAUAAGCUGACGGACAUGGUCCUAACCACGCAGCCAAGUCCUAAGUCAACAGAUCUUCUGUUGAUAUGGAUGCAGUUCACAGACUAAAUGUCGGUCGGGGAAGAUGUAUUCUUCUCAUAAGAUAUAGUCGGACCUCUCCUUAAUGGGAGCUAGCGGAUGAAGUGAUGCAACACUGGAGCCGCUGGGAACUAAUUUGUAUGCGAAAGUAUAUUGAUUAGUUUUGGAGUACUCGUGGUCG
In short: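 Colonies from six replicate transformations of E. coli BL21(DE3) were pooled and amplicon-sequenced on an Illumina HiSeq 2500. The library placed an intron with all eight P1ex-region nucleotides randomised inside the knt kanamycin-resistance gene on pET-22b(+), and cells grew overnight at 37°C or 30°C on LB agar with or without 25 μg/mL kanamycin (plus 100 μg/mL carbenicillin, 50 μM IPTG, 0.2% rhamnose). Fitness is the DiMSum error-weighted combination of wild-type-normalised replicate fold changes, kanamycin versus none.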

Sequence | self-splicing fitness (ln) (30 °C) | self-splicing fitness (ln) (37 °C)
AGGAAGCAAUAUUACGGCAC | -1.55 ± 0.14 | -0.99 ± 0.14
AGGAAGCAAUAUUACGGCCG | -0.634 ± 0.12 | -0.462 ± 0.19
AGGAAGCAAUAUUACGGCCU | -2.44 ± 0.37 | -1.5 ± 0.3
AGGAAGCAAUAUUACGGCUC | -1.07 ± 0.14 | -0.713 ± 0.19
AGGAAGCAAUAUUACGGUUC | -2.78 ± 0.21 | -2.24 ± 0.2
AGGAAGCAAUAUUACGUCUA | -0.335 ± 0.092 | -0.143 ± 0.1
AGGAAGCAAUAUUACGUCUU | -2.07 ± 0.062 | -1.59 ± 0.08
AGGAAGCAAUAUUACGUGCC | -1.72 ± 0.22 | -0.175 ± 0.23
AGGAAGCAAUAUUACGUUUG | -3.55 ± 0.17 | -2.48 ± 0.19
AGGCAGCAAUAUUACGAAAA | -3.77 ± 0.25 | -2.26 ± 0.15
AGGCAGCAAUAUUACGAAAC | -3.58 ± 0.22 | -1.8 ± 0.19
AGGCAGCAAUAUUACGAACU | 0.174 ± 0.095 | 0.719 ± 0.12
AGGCAGCAAUAUUACGACAU | -0.21 ± 0.012 | -0.101 ± 0.032
AGGCAGCAAUAUUACGAUAG | -3.08 ± 0.34 | -2.15 ± 0.36
AGGCAGCAAUAUUACGAUGG | -3.56 ± 0.19 | -2.44 ± 0.22
AGGCAGCAAUAUUACGAUUA | -1.12 ± 0.1 | -0.936 ± 0.095
AGGCAGCAAUAUUACGCAGA | -1.37 ± 0.12 | -0.754 ± 0.11
AGGCAGCAAUAUUACGCGCU | -3.04 ± 0.15 | -1.03 ± 0.1
AGGCAGCAAUAUUACGCGUC | -3.34 ± 0.3 | -2.54 ± 0.3
AGGCAGCAAUAUUACGCUUA | -0.31 ± 0.1 | -0.299 ± 0.099
AGGCAGCAAUAUUACGGAAG | -2.92 ± 0.13 | -1.98 ± 0.15
AGGCAGCAAUAUUACGGAGA | -2.91 ± 0.14 | -2.61 ± 0.17
AGGCAGCAAUAUUACGGCAC | -0.991 ± 0.085 | -0.533 ± 0.13
AGGCAGCAAUAUUACGGCAU | -0.346 ± 0.062 | 0.15 ± 0.09
AGGCAGCAAUAUUACGUAAG | -1.77 ± 0.13 | -0.486 ± 0.17
AGGCAGCAAUAUUACGUAUG | -3.27 ± 0.27 | -1.53 ± 0.15

Sequence | self-splicing fitness (ln) (30 °C) | self-splicing fitness (ln) (37 °C)
AGGCAGCAAUAUUACGUCCA | -0.459 ± 0.051 | 0.0124 ± 0.078
AGGCAGCAAUAUUACGUCCC | – | 0.266 ± 0.3
AGGCAGCAAUAUUACGUCUA | -0.469 ± 0.081 | 0.262 ± 0.091
AGGCAGCAAUAUUACGUGAG | -0.654 ± 0.066 | -0.526 ± 0.09
AGGCAGCAAUAUUACGUGGA | -4.02 ± 0.26 | -2.6 ± 0.14
AGGCAGCAAUAUUACGUUCU | -1.86 ± 0.08 | -0.817 ± 0.09
AGGGAGCAAUAUUACGAACA | -3.22 ± 0.45 | -1.72 ± 0.31
AGGGAGCAAUAUUACGAAUC | – | -2.43 ± 0.29
AGGGAGCAAUAUUACGACAU | -2.607 ± 0.025 | -2.17 ± 0.041
AGGGAGCAAUAUUACGACUG | -2.15 ± 0.24 | 0.0208 ± 0.21
AGGGAGCAAUAUUACGAGGG | – | -2.2 ± 0.5
AGGGAGCAAUAUUACGAGUU | -4.48 ± 0.46 | -1.45 ± 0.19
AGGGAGCAAUAUUACGAUGA | -3.54 ± 0.37 | -2.7 ± 0.41
AGGGAGCAAUAUUACGAUUG | -3.9 ± 0.17 | -3.41 ± 0.25
AGGGAGCAAUAUUACGCAGC | -2.92 ± 0.47 | –
AGGGAGCAAUAUUACGCAUU | -3.7 ± 0.37 | –
AGGGAGCAAUAUUACGCCAG | -1.99 ± 0.24 | -2.14 ± 0.34
AGGGAGCAAUAUUACGCUAG | -2.36 ± 0.31 | -0.612 ± 0.41
AGGGAGCAAUAUUACGGCGU | -2.04 ± 0.12 | -1.05 ± 0.11
AGGGAGCAAUAUUACGGUCG | -2.2 ± 0.31 | -2.83 ± 0.48
AGGGAGCAAUAUUACGUCCA | -1.11 ± 0.27 | -0.389 ± 0.33
AGGGAGCAAUAUUACGUCGU | -4.4 ± 0.46 | -2.46 ± 0.33
AGGGAGCAAUAUUACGUCUG | – | -1.73 ± 0.36
AGGGAGCAAUAUUACGUUAA | -3.09 ± 0.48 | -2.66 ± 0.41
AGGGAGCAAUAUUACGUUCC | – | -2.63 ± 0.48
AGGUAGCAAUAUUACGAAAC | -3.37 ± 0.035 | -1.85 ± 0.042

Sequence | self-splicing fitness (ln) (30 °C) | self-splicing fitness (ln) (37 °C)
AGGUAGCAAUAUUACGACAG | -1.6 ± 0.017 | -0.956 ± 0.034
AGGUAGCAAUAUUACGACCU | -3.04 ± 0.031 | -2.42 ± 0.049
AGGUAGCAAUAUUACGACUA | -0.0242 ± 0.016 | 0.141 ± 0.034
AGGUAGCAAUAUUACGAGCC | -0.991 ± 0.021 | -0.862 ± 0.037
AGGUAGCAAUAUUACGAUAG | -3.728 ± 0.035 | -2.72 ± 0.045
AGGUAGCAAUAUUACGCACA | -0.467 ± 0.017 | 0.0312 ± 0.034
AGGUAGCAAUAUUACGCACG | -0.782 ± 0.016 | -0.31 ± 0.035
AGGUAGCAAUAUUACGCAUA | -1.71 ± 0.019 | -0.787 ± 0.034
AGGUAGCAAUAUUACGCGUC | -2.763 ± 0.023 | -1.57 ± 0.037
AGGUAGCAAUAUUACGCUCA | -0.609 ± 0.017 | -0.196 ± 0.035
AGGUAGCAAUAUUACGCUUC | -3.52 ± 0.036 | -2.83 ± 0.054
AGGUAGCAAUAUUACGGCUC | -0.672 ± 0.017 | -0.185 ± 0.036
AGGUAGCAAUAUUACGGGCU | -0.801 ± 0.016 | -0.848 ± 0.035
AGGUAGCAAUAUUACGGGGC | -3.748 ± 0.033 | -2.96 ± 0.043
AGGUAGCAAUAUUACGUGGG | -3.908 ± 0.027 | -2.98 ± 0.039
AGGUAGCAAUAUUACGUGUC | -3.313 ± 0.024 | -2.07 ± 0.037
AGGUAGCAAUAUUACGUGUU | -2.894 ± 0.016 | -1.6 ± 0.034
AGGUAGCAAUAUUACGUUUG | -3.578 ± 0.024 | -2.55 ± 0.039
AGUAAGCAAUAUUACGAAGU | -1.75 ± 0.24 | -0.18 ± 0.27
AGUAAGCAAUAUUACGACAU | -0.346 ± 0.013 | -0.078 ± 0.033
AGUAAGCAAUAUUACGACCU | 0.329 ± 0.11 | 0.451 ± 0.14
AGUAAGCAAUAUUACGACGC | -0.403 ± 0.15 | 0.541 ± 0.17
AGUAAGCAAUAUUACGACUC | -1.88 ± 0.13 | -0.797 ± 0.14
AGUAAGCAAUAUUACGAGGG | -3.06 ± 0.18 | -2.87 ± 0.28
AGUAAGCAAUAUUACGAGUC | -2.96 ± 0.23 | -1.45 ± 0.17
